Results on three molecules are retold here after patent US20240277861A1, “ANTI-HEPATITIS B VIRUS AGENT TARGETING HOST FACTOR LIPG” (PUROTECH BIO, INC., priority 2021, published 2024).

The assay deals with HBV. Nature of the assay: Anti-HBV activities of LIPG-binding peptides delivered into PXB cells-1 (scFv fusions). Format: cell-based. Particulars: for HBV-DNA copy number: peptide concentrations (nM) indicated in FIG. 41B; for cccDNA copy number: peptide concentrations (nM) indicated in FIG. 41C. The procedure: An infection source medium was prepared by adding the HBV-infected chimeric mouse serum (PhoenixBio), DMSO, and a PEG 8000 solution to the PXB cell culture medium (PhoenixBio) at final concentrations of 5 genome equivalents/cell, 2%, and 4%, respectively. Various synthesized peptides were diluted to different concentrations in this medium, and the resulting media were added individually to PXB cells (PhoenixBio). After the cells were left to stand in a 5% CO2 incubator at 37° C. for 20 to 28 hours, the medium was removed and the wells were washed once with PBS(−). DMSO and one of the various synthesized peptides were added to the PXB cell culture medium at a final concentration of 2% and different concentrations, respectively, and the resulting media were added individually to the PXB cells to perform medium exchange. This medium exchange was performed at 1, 5, and 9 days post infection and samples were collected at 14 days post infection.
SMI TEST™ M EX-R&D (Medical & Biological Laboratories) was used to extract DNA from the samples. The extracted DNA was used as a template for quantitative PCR of HBV-DNA. For cccDNA detection, the extracted DNA was treated with T5 exonuclease (New England Biolabs), and the resulting DNA was used as a template for quantitative PCR. The T5 exonuclease treatment was performed at 37° C. for 30 minutes, and the DNase was later inactivated by heating at 80° C. for 15 minutes. The following primer set was used for detection.
The anti-HBV activities of LIPG-binding peptides delivered into cells were evaluated using PXB cells and anti-ASGR single-chain antibody-LIPG-binding peptide fusions. Of the fusions prepared in Example 16, 10M-L23N, 10M-L23SN. 10M-L23SN-S39, and 10M-LNTSN were used. According to the timeline shown in FIG. 41A, the anti-HBV activities of the fusions were evaluated using the methods described in “(10-5) Infection experiment using PXB cells” and “(10-6) Quantification of HBV-DNA and cccDNA”.

B1: 10M-L23N: fusion of anti-ASGR scFv ASGR3-10M, cleavage sequence, LIPH4-23, S28, nuclear localization signal (SEQ ID NO: 127) (protein)
chain: RVRRLNCRDNTRPVMSAMTCDYKDDDDKHHHHHHHPFVIGAGVLGALGTGIGGITTSTQFYYKPAAKRVKLD
modifications: cleavage sequence + LIPH4-23 + Flag-tag + His-tag + S28 + nuclear localization signal
In the case of B1, the HBV-DNA copy number result is given as “remarkably reduced” and the cccDNA copy number entry is “remarkably reduced”.

B2: 10M-L23SN-S39: fusion of ASGR3-10M scFv, cleavage sequence, LIPH4-23s, S39, nuclear localization signal (SEQ ID NO: 129) (protein)
chain: RVRRLNCRDNTRDYKDDDDKHHHHHHHPFVIGAGVLGALGTGIGGITTSTQFYYKLSQELNGDMERPAAKRVKLD
modifications: cleavage sequence + LIPH4-23S + Flag-tag + His-tag + S39 + nuclear localization signal
Regarding B2, the HBV-DNA copy number entry is recorded as “remarkably reduced” and the cccDNA copy number result is recorded as “remarkably reduced”. The “HBV-DNA and cccDNA copy numbers” value (added concentrations 2.5 to 25 nM) is listed as “remarkably reduced”.

B3: 10M-L23SN: fusion of ASGR3-10M scFv, cleavage sequence, LIPH4-23s, S28, nuclear localization signal (SEQ ID NO: 128) (protein)
chain: RVRRLNCRDNTRDYKDDDDKHHHHHHHPFVIGAGVLGALGTGIGGITTSTQFYYKPAAKRVKLD
modifications: cleavage sequence + LIPH4-23S + Flag-tag + His-tag + S28 + nuclear localization signal
B3: the HBV-DNA copy number result is recorded as “remarkably reduced” and the cccDNA copy number entry was “remarkably reduced”.
